Measurements published in publication PMC6707876 (Nature microbiology, 2019).

Legend:
[1] = biological target: T1, biotinylated BirA-tagged Sal-1 DBP-II (Plasmodium vivax, UniProt P22290, biotin (added with BirA ligase on the BirA tag)); assay: BLI
[2] = biological target: T1, biotinylated BirA-tagged Sal-1 DBP-II; assay: flow cytometry on cells

T1 sequence (P22290 211-525): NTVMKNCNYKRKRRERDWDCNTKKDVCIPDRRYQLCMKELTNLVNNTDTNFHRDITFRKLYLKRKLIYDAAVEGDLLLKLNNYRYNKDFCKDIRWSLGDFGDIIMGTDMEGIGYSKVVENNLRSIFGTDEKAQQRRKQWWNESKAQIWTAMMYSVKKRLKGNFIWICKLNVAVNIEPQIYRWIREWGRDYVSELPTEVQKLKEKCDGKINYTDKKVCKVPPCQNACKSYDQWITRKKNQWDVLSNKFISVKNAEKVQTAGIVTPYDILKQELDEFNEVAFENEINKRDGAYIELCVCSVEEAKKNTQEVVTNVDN

B1: 053054 single-chain variable fragment (scFv, V domains shown)
VH: QVQLQESGPGLVKPSQTLSLTCNVSGDSINSGDYYWIWIRQPPGKGLEWIGNIYYSGTAYYNPSLKTRLIISIDTSTNQFSLKVTSVTAADTAIYYCARASTTVVSPWLDPWGQGTLVTVSS
VL: SYELTQPSSVAVAPGQTARIPCGGDNIESKGVHWYQQKPGQAPVLVVYDDHDRPSGIPERFSGSNSGNTATLTVSRVEAGDEADYYCQVWDTSSEHPVFGGGTKLTVL
With B1 the Kd [1] was 7.44 ± 0.36 nM.

B2: human monoclonal antibody 053054 (full-length IgG1) (antibody, V domains shown)
VH: QVQLQESGPGLVKPSQTLSLTCNVSGDSINSGDYYWIWIRQPPGKGLEWIGNIYYSGTAYYNPSLKTRLIISIDTSTNQFSLKVTSVTAADTAIYYCARASTTVVSPWLDPWGQGTLVTVSS
VL: SYELTQPSSVAVAPGQTARIPCGGDNIESKGVHWYQQKPGQAPVLVVYDDHDRPSGIPERFSGSNSGNTATLTVSRVEAGDEADYYCQVWDTSSEHPVFGGGTKLTVL
B2 gave an IC50 [2] of 4.88 ± 1.06 nM.

B3: 092096 single-chain variable fragment (scFv, V domains shown)
VH: QVQLVQSGAEVKKPGASVKVSCKVSGYTLTELSMHWVRQAPGKGLEWMGGFDREDGESIYAQKFQGRVTLTEDTSTDSVYMELSNLRSDDTAVYFCATDFGGSYFYAFDIWGQGTMVTVSS
VL: not shown
B3 showed a Kd [1] of 7.63 ± 0.29 nM.

B4: human monoclonal antibody 092096 (full-length IgG1) (antibody, V domains shown)
VH: QVQLVQSGAEVKKPGASVKVSCKVSGYTLTELSMHWVRQAPGKGLEWMGGFDREDGESIYAQKFQGRVTLTEDTSTDSVYMELSNLRSDDTAVYFCATDFGGSYFYAFDIWGQGTMVTVSS
VL: not shown
Work on B4 yielded an IC50 [2] of 1.63 ± 1.07 nM.
